Test results reported in publication PMC12151148 (2024).
One block for each binder: values may come before it.

B1: Insc (18–66) (domain or fragment)
chain: WGLWGAQESRRLCCVGPDRCGQALLQIGINMMALPGGRHLDSVPLQEQR
B3: LGN-TPR (1–409) (domain or fragment)
chain: MREDHSFHVRYRMEASCLELALEGERLCKSGDCRAGVSFFEAAVQVGTEDLKTLSAIYSQLGNAYFYLHDYAKALEYHHHDLTLARTIGDQLGEAKASGNLGNTLKVLGNFDEAIVCCQRHLDISRELNDKVGEARALYNLGNVYHAKGKSFGCPGPQDTGEFPEDVRNALQAAVDLYEENLSLVTALGDRAAQGRAFGNLGNTHYLLGNFRDAVIAHEQRLLIAKEFGDKAAERRAYSNLGNAYIFLGEFETASEYYKKTLLLARQLKDRAVEAQSCYSLGNTYTLLQDYEKAIDYHLKHLAIAQELKDRIGEGRACWSLGNAYTALGNHDQAMHFAEKHLEISREVGDKSGELTARLNLSDLQMVLGLSYSTNNSMMSENIEIDGSLHGAGAKLGRRHSMENLELMK

What was measured:
AGS3-L (−23–405) = target: T1, AGS3-L (−23–405) (mouse); assay: ITC
T1 chain: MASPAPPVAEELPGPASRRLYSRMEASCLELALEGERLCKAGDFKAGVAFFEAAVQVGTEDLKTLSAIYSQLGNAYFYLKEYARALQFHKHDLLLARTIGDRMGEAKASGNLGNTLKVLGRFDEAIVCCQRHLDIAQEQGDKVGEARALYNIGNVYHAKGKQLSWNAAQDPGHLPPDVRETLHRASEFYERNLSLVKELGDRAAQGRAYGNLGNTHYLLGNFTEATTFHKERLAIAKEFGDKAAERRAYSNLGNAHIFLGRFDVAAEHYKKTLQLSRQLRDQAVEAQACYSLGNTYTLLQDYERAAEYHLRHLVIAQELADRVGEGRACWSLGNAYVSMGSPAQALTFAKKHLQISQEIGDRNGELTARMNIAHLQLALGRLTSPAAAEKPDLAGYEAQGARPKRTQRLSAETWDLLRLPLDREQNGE

AGS3-TPR (1–405) = target: T2, AGS3-TPR (1–405) (mouse); assay: ITC; AGS3-TPR premixed with NuMA (1886–1912)
T2 chain: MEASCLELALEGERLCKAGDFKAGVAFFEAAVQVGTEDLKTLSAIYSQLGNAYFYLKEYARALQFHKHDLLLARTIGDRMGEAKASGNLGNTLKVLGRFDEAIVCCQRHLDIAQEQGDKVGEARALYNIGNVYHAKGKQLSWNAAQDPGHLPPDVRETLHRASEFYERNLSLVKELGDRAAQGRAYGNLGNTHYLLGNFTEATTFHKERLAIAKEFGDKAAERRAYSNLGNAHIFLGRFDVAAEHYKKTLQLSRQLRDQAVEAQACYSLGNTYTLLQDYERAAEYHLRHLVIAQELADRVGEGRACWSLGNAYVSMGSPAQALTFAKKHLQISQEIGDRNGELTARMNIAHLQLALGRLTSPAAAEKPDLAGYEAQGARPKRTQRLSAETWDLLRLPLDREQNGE

LGN-TPR (1–409) = target: B3; assay: ITC
FL-LGN-4E = target: T3, FL-LGN-4E (mouse, UniProt Q8VDU0); assay: ITC
T3 sequence (Q8VDU0 whole entry, looked up): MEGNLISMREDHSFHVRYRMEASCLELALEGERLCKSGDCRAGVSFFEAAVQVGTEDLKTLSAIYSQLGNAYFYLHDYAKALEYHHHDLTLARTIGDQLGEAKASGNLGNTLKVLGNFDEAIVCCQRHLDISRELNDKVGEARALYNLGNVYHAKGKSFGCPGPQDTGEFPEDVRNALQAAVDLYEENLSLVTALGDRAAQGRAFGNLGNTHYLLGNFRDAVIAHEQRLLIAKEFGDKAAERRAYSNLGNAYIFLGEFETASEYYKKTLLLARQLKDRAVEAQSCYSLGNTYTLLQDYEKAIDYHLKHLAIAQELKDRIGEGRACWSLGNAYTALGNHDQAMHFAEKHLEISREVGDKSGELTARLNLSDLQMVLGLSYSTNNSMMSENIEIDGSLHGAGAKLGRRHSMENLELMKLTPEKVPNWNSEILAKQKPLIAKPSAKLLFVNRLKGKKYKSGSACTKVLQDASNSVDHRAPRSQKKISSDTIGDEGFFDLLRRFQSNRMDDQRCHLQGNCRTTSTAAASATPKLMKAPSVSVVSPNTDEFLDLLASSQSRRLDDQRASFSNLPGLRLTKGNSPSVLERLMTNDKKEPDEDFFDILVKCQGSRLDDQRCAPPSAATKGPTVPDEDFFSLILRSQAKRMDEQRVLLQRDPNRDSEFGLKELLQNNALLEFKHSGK

FL-AGS3-4E = target: T4, FL-AGS3-4E (mouse, UniProt Q6IR34); assay: ITC
T4 sequence (Q6IR34 whole entry, looked up): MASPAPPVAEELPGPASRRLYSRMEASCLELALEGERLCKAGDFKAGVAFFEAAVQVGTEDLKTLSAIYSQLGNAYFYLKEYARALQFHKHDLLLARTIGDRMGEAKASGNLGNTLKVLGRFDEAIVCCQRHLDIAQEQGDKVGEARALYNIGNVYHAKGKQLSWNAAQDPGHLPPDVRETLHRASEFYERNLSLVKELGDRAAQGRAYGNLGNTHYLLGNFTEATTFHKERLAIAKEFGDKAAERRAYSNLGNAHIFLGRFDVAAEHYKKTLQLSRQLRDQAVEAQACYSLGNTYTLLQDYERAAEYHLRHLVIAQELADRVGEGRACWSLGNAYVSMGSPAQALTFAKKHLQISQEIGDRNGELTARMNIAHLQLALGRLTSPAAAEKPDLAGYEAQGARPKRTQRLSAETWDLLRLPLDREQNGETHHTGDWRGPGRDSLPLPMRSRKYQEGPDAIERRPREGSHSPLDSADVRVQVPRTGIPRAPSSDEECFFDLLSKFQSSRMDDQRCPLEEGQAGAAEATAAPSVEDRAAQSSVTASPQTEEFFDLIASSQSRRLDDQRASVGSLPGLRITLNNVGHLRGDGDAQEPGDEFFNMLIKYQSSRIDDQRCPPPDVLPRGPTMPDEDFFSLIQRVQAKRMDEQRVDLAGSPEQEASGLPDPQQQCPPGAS

LGN GL3 motif = target: T5, LGN GL3 motif (mouse); assay: ITC
T5 chain: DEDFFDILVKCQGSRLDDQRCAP

AGS3-GL1234 (470–631) = target: T6, AGS3-GL1234 (470–631) (mouse); assay: ITC
T6 chain: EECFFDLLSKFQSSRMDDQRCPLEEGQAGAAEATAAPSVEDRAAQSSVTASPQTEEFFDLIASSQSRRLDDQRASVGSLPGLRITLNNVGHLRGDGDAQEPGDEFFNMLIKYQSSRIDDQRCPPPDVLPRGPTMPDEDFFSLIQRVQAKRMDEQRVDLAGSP

LGN-GL1234 (483–650) = target: T7, LGN-GL1234 (483–650) (mouse); assay: ITC
T7 chain: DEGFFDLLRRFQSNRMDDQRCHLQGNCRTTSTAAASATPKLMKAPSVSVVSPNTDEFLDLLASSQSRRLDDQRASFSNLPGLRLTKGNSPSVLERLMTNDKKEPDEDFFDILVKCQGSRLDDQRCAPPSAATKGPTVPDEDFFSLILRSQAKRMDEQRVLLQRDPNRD

LGN GL4 motif = target: T8, LGN GL4 motif (mouse); assay: ITC
T8 chain: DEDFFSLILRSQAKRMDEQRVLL

NuMA (1886–1912) = target: T9, NuMA (1886–1912) (human, UniProt Q14980-2 1886-1912); assay: ITC
T9 chain: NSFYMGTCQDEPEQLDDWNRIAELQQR

Insc (18–66) = target: B1; assay: ITC

Binder: B1
- Kd (AGS3-L (−23–405)): 870 nM
- Kd (AGS3-TPR (1–405)): 12.7 µM
- Kd (LGN-TPR (1–409)): 980 nM
- Kd (FL-LGN-4E): 580 nM
- Kd (FL-AGS3-4E): 290 nM

- Kd (LGN GL3 motif): 42 nM
- Kd (AGS3-GL1234 (470–631)): 280 nM
- Kd (LGN-GL1234 (483–650)): 260 nM
- Kd (LGN GL4 motif): 190 nM
B2: Gαi3⋅GDP (natural protein)
chain: MGCTLSAEDKAAVERSKMIDRNLREDGEKAAKEVKLLLLGAGESGKSTIVKQMKIIHEDGYSEDECKQYKVVVYSNTIQSIIAIIRAMGRLKIDFGEAARADDARQLFVLAGSAEEGVMTPELAGVIKRLWRDGGVQACFSRSREYQLNDSASYYLNDLDRISQSNYIPTQQDVLRTRVKTTGIVETHFTFKDLYFKMFDVGGQRSERKKWIHCFEGVTAIIFCVALSDYDLVLAEDEEMNRMHESMKLFDSICNNKWFTETSIILFLNKKDLFEEKIKRSPLTICYPEYTGSNTYEEAAAYIQCQFEDLNRRKDTKEIYTHFTCATDTKNVQFVFDAVTDVIIKNNLKECGLY

Binder: B3
- Kd (NuMA (1886–1912)): 630 nM
- Kd (Insc (18–66)): 980 nM
